Experimental data taken from PMC4129656.

Target: biotinylated E2F-1 peptide symmetrically methylated at R111 and R113
Assay: BLI

- Kd: 12 µM
Substance: p100-TSN Tudor domain (biolayer interferometry) (from UniProt Q7KZF4 729-787) (domain or fragment)
